This experiment deals with 4-Ig human B7H3 (analyte of the Biacore SPR) (Homo sapiens, UniProt Q5ZPR3). Briefly: SPR. In general terms: SPR reads the build-up and loss of mass on a sensor chip optically.

The text below walks through data of PMC12325614 (Nature Communications, 2025).

4-Ig human B7H3 (analyte of the Biacore SPR), sequence (Q5ZPR3 29-466): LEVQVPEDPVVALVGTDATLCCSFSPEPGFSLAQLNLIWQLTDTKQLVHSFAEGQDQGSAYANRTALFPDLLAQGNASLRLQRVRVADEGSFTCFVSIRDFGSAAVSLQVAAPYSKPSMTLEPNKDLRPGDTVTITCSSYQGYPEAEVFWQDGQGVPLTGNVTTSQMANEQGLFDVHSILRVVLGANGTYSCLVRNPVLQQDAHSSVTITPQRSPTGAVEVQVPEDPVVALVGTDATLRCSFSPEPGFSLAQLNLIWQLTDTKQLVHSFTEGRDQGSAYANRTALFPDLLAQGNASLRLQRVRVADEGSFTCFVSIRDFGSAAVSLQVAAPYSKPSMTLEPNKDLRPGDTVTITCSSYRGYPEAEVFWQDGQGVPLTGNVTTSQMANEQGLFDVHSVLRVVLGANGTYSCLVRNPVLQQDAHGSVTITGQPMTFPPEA

B1: TE9 whole antibody in human IgG1 format (antibody, V domains shown)
VH: QVQLQQSGAALVKPGTSVKLSCKASGYTFTSYWMHWVKQRPGQGLEWIGMIHPKSGSVDYNEKFTNKATLTGDKSSGTAYMQLSSLTSEDSAVYYCARGGYGSPFDYWGQGTTVTVSS
VL: ENVLTQSPAIMSASPGEKVTMTCSASSSVSYMYWYQQKPGSSPRLLIYRTSNLASGVPARFSGSGSGTSYSLTISSMEAEDAATYYCQQWSSNPPTFGGGTKLEIK
Regarding B1, binding was put at a Kd of 0.44 nM. This counts as sub-nanomolar.

B2: MGA271 whole antibody in human IgG1 format (antibody, V domains shown)
VH: EVQLVESGGGLVQPGGSLRLSCAASGFTFSSFGMHWVRQAPGKGLEWVAYISSDSSAIYYADTVKGRFTISRDNAKNSLYLQMNSLRDEDTAVYYCGRGRENIYYGSRLDYWGQGTTVTVSS
VL: DIQLTQSPSFLSASVGDRVTITCKASQNVDTNVAWYQQKPGKAPKALIYSASYRYSGVPSRFSGSGSGTDFTLTISSLQPEDFATYYCQQYNNYPFTFGQGTKLEIK
In the case of B2, the Kd (as a rule, the free concentration of one partner at which half of the binding sites on the other are occupied at equilibrium, for simple one-to-one binding) stood at 1.61 nM.
